Experimental data taken from publication PMC9711875.

Target: CD177 (UniProt Q8N6Q3)
Test: SPR; Biacore T200; CD177 amine coupled to a CM5 chip (about 770 counts for kinetic measurements); PR3 or AAT as soluble analytes in 10 mM HEPES, 150 mM NaCl, 0.05% Tween20; 30 μL/minute; 25°C

B1: purified proteinase 3 (enzyme)
chain: IVGGHEAQPHSRPYMASLQMRGNPGSHFCGGTLIHPSFVLTAAHCLRDIPQRLVNVVLGAHNVRTQEPTQQHFSVAQVFLNNYDAENKLNDVLLIQLSSPANLSASVATVQLPQQDQPVPHGTQCLAMGWGRVGAHDPPAQVLQELNVTVVTFFCRPHNICTFVPRRKAGICFGDSGGPLICDGIIQGIDSFVIWGCATRLFPDFFTRVALYVDWIRSTLR
B1 showed a Kd of 20 nM.
